Source: patent US20190359693A1

Target: hemagglutinin (HA) of influenza A/Env/MPJ193/09 (H3N?) (influenza A virus)
Assay: cell-based or functional assay

MD3606 (Fc fusion)
Average neutralization titers: 11.8 nM
